Experiment [1] deals with S protein of authentic SARS-CoV-2 G614 virus (SARS-CoV-2, UniProt P0DTC2 14-1273). Briefly: cell-based or functional assay.
Experiment [2] shares this target. Description: cell-based or functional assay. The source holds these as a separate data set.

B1: XG014 IgG (antibody, V domains shown)
VH: EVQLVQSGAEVKKPGESLKISCKGSGYSFSNYWIGWVRHMPGKGLEWMGIIYPGDSDTRYSPSFQGQVTISVDTSISTAYLQWSSLKASDTAMYYCTRHQYGYNYGYFYYYIDVWGKGTTVTVSS
VL: QSVLTQPPSVSAAPGQKVTISCSGSSSNIGNNPVSWYRQVPGTAPKLLIYDNNKRPSGIPDRFSGSKSGASATLGITGLQTGDEADYYCGTWHTSLSSGVFGGGTKLTVL
B1: in experiment [1], the “IC50, microneutralization assay with authentic virus” value (“IC50, microneutralization assay” for short) came out at 0.24 nM.

B2: DXP-604 dimeric IgA1 (antibody)
heavy: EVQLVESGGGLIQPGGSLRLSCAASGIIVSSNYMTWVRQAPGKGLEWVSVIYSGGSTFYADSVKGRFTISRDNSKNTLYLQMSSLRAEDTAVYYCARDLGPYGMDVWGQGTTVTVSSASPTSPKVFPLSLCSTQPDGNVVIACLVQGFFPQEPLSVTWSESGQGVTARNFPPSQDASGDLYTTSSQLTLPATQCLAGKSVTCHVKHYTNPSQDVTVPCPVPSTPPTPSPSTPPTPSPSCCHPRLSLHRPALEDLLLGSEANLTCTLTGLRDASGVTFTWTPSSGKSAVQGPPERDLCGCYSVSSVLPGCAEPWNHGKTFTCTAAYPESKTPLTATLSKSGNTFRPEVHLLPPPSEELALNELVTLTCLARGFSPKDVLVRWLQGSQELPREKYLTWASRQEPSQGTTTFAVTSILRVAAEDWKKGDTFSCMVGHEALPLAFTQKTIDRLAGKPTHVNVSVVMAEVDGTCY
light: DIQLTQSPSFLSASVGDRVTITCRASQGISSDLAWYQQKPGKAPNLLIYAASTLQSGVPSRFSGSGSGTEFTLTISSLQPEDFATYYCQQLNSDLYTFGQGTKLEIKRTVAAPSVFIFPPSDEQLKSGTASVVCLLNNFYPREAKVQWKVDNALQSGNSQESVTEQDSKDSTYSLSSTLTLSKADYEKHKVYACEVTHQGLSSPVTKSFNRGEC
chain: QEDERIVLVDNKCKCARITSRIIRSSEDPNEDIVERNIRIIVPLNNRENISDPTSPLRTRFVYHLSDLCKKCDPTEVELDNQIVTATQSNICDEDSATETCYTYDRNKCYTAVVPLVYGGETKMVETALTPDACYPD
For the molecule B2, the “IC50, microneutralization assay” value in experiment [2] was 0.11 nM.

B3: DXP-604 secretory IgA1 (antibody)
heavy: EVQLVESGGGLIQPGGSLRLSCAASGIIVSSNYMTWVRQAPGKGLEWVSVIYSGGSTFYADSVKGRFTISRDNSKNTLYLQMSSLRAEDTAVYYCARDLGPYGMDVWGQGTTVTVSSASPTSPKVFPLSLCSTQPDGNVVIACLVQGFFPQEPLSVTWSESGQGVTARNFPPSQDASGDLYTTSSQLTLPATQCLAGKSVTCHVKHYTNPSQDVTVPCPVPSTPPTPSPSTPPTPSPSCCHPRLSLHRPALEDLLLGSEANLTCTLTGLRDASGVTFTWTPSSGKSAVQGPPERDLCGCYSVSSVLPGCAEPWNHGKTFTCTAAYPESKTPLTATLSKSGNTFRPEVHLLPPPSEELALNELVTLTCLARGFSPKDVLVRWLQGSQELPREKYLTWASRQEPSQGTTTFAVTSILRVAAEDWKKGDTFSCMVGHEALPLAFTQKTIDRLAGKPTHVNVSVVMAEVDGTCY
light: DIQLTQSPSFLSASVGDRVTITCRASQGISSDLAWYQQKPGKAPNLLIYAASTLQSGVPSRFSGSGSGTEFTLTISSLQPEDFATYYCQQLNSDLYTFGQGTKLEIKRTVAAPSVFIFPPSDEQLKSGTASVVCLLNNFYPREAKVQWKVDNALQSGNSQESVTEQDSKDSTYSLSSTLTLSKADYEKHKVYACEVTHQGLSSPVTKSFNRGEC
chain 1: not shown
chain 2: not shown
As to B3, in experiment [2], the “IC50, microneutralization assay” value was 0.04 nM.

The record behind these values is patent US20240209065A1 (SINGLOMICS BEIJING DANXU BIOPHARMACEUTICALS, published 2024).
